Measurements published in patent US20210062131A1, “In Vitro, Multi-Niche, Bone Marrow-on-a-Chip” (Georgia Tech Research Corporation, priority 2018, published 2021).

System: CXCL12
Assay: CXCL12 expression by immunohistochemistry in BMOC device after adding mobilizing agents
Format: cell-based, human
Conditions: BMOC with OBs, HUVECs and MSCs; G-CSF and AMD3100 added on day 5, cells fixed and stained on day 6; IHC
Experimental: Cells were fixed and stained on day 6. CXCL12 expression was measured by immunohistochemistry (IHC); n=2-3 devices (× 5 ROI each), mean±SD.
Staining procedure for devices was adapted from previously reported approaches. Devices were washed with PBS, fixed with 4% formaldehyde (ThermoFisher), and permeabilized with 0.1% Triton X-100. Prior to staining, cells were blocked with 5% BSA, 3% goat serum in PBS. Primary antibodies were diluted (1:100) in blocking buffer and devices were stained overnight at 4° C. Devices were then washed with 0.1% BSA in PBS and stained with secondary antibodies (1:200) diluted in wash buffer for 3 hours at RT. Devices were washed with wash buffer and then stained with DAPI (1:1000) and Phalloidin AF647 (1:40).

B1: G-CSF: mobilizing agent added to the BMOC device (protein, UniProt P09919 31-207, looked up)
Granulocyte …: TPLGPASSLPQSFLLKCLEQVRKIQGDGAALQEKLVSECATYKLCHPEELVLLGHSLGIPWAPLSSCPSQALQLAGCLSQLHSGLFLYQGLLQALEGISPELGPTLDTLQLDVADFATTIWQQMEELGMAPALQPTQGAMPAFASAFQRRAGGVLVASHLQSFLEVSYRVLRHLAQP
expression of cytokine CXCL12: decrease expression of cytokine CXCL12
